Data from publication PMC10687048.

Molecular target: Chikungunya virus (CHIKV) nonstructural protein 1 (nsP1) H37A mutant (chikungunya virus)
Experiment: cryo-EM structure; nsP1-mut incubated with SAH and m7GpppAmU at 4 °C overnight; graphene-covered grids; refinement with C12 symmetry, 2.41 Å

Chikungunya virus (CHIKV) nonstructural protein 1 (nsP1) H37A mutant (enzyme)
stoichiometry N: 12
